# Laboratory results from patent publication USRE46376 (Wyeth LLC, dated 2017).
# How the values were obtained:
# [1] = molecular target: wild-type C. difficile toxin B (TcdB) (Clostridium difficile strain 630, UniProt P18177 2-2366); test: binding specificity, Table 18
# [2] = molecular target: Commercial, Control Toxin B wt (List Biologicals) (Clostridium difficile, UniProt P18177 2-2366); test: dot blot, non-denaturing conditions
# Sequence of Commercial, Control Toxin B wt (List Biologicals) (P18177 2-2366 limits assumed): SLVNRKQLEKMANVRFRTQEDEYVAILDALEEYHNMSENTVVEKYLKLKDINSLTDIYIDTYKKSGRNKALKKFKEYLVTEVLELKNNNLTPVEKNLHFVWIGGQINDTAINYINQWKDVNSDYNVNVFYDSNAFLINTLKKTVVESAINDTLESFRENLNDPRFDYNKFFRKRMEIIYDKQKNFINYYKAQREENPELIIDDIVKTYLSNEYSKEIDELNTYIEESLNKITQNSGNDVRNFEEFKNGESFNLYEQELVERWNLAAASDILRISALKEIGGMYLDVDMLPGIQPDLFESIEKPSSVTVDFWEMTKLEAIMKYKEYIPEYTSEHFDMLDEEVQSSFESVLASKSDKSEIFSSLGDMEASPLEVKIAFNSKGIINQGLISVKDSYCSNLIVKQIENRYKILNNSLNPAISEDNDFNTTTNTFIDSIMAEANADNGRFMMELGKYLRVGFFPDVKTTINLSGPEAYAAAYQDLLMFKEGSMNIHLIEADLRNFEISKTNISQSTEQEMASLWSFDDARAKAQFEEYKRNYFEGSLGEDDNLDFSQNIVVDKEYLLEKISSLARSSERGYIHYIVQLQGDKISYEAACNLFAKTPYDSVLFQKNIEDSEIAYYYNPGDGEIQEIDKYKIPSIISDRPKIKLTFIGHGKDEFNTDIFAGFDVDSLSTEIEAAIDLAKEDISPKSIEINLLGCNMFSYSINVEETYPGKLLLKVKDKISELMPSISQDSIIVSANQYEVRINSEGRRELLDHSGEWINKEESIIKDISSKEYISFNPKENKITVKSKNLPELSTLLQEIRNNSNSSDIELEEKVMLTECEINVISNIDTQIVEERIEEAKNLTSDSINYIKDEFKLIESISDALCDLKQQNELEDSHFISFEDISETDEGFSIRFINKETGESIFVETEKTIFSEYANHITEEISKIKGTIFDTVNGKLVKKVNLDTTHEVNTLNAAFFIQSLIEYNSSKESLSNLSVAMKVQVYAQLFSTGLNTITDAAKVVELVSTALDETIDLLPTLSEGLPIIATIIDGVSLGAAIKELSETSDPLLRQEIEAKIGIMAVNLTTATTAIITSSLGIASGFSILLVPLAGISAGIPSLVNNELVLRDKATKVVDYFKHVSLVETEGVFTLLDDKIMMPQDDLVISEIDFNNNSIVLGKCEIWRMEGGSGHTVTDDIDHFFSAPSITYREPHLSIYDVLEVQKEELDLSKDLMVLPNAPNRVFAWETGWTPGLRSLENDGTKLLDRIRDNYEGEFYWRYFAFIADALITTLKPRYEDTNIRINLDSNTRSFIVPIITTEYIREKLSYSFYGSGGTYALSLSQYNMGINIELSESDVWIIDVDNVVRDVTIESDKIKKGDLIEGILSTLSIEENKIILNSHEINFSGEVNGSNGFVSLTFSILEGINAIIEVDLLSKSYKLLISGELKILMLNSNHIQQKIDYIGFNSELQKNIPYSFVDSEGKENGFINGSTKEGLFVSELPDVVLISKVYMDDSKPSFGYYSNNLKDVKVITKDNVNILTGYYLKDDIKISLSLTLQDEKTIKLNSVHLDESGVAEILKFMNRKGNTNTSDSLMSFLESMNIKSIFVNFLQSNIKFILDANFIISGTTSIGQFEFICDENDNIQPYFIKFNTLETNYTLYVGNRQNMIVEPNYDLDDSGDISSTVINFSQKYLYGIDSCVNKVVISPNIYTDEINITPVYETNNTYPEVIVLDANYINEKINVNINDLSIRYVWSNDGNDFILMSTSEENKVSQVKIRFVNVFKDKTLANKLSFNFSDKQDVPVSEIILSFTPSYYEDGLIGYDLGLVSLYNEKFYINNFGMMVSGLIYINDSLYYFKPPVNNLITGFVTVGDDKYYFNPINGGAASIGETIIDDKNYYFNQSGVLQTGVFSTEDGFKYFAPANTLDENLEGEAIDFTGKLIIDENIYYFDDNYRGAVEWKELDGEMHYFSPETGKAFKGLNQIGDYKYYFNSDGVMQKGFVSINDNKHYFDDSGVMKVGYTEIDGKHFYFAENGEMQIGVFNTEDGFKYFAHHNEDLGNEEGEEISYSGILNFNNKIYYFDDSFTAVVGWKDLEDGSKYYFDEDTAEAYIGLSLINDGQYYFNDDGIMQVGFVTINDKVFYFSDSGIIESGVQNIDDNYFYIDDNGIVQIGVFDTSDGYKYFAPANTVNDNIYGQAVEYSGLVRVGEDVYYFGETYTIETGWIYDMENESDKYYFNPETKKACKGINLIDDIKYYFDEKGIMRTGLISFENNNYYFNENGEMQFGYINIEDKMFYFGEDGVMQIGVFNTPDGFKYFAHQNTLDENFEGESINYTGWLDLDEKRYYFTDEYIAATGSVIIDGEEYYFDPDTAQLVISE
# Sequence of wild-type C. difficile toxin B (TcdB) (P18177 2-2366 limits assumed): as above
Binder,binding result [1],binding result [2]
"B9-30 mAb (antibody, V domains shown) VH: QVQLQQPGAEVVKPGAPVKLSCKASGYPFTNYWMNWVKQRPGRGLEWIGRIDPSNSEIYYNQKFKDKATLTVDKSSSTAYIQLSSLTSEDSAVYYCASGHYGSIFAYWGQGTTLTVSS VL: VQITQSPSYLAASPGETITINCRASKSISKYLAWYQEKPGKTNKLLIYSGSTLQSGIPSRFSGSRSGTDFTLIISSLEPEDSAMYYCQQHNEYPLTFGAGTKLELKR",binds,
"B9-30 mAb (C. difficile TcdB neutralizing antibody) (antibody, V domains shown) VH: QVQLQQPGAEVVKPGAPVKLSCKASGYPFTNYWMNWVKQRPGRGLEWIGRIDPSNSEIYYNQKFKDKATLTVDKSSSTAYIQLSSLTSEDSAVYYCASGHYGSIFAYWGQGTTLTVSS VL: VQITQSPSYLAASPGETITINCRASKSISKYLAWYQEKPGKTNKLLIYSGSTLQSGIPSRFSGSRSGTDFTLIISSLEPEDSAMYYCQQHNEYPLTFGAGTKLELKR",,binds
